Experimental data taken from IntAct's records for PubMed 19933576.

B1: Prelamin-A/C (Homo sapiens), P02545 (parent)
chain: METPSQRRATRSGAQASSTPLSPTRITRLQEKEDLQELNDRLAVYIDRVRSLETENAGLRLRITESEEVVSREVSGIKAAYEAELGDARKTLDSVAKERARLQLELSKVREEFKELKARNTKKEGDLIAAQARLKDLEALLNSKEAALSTALSEKRTLEGELHDLRGQVAKLEAALGEAKKQLQDEMLRRVDAENRLQTMKEELDFQKNIYSEELRETKRRHETRLVEIDNGKQREFESRLADALQELRAQHEDQVEQYKKELEKTYSAKLDNARQSAERNSNLVGAAHEELQQSRIRIDSLSAQLSQLQKQLAAKEAKLRDLEDSLARERDTSRRLLAEKEREMAEMRARMQQQLDEYQELLDIKLALDMEIHAYRKLLEGEEERLRLSPSPTSQRSRGRASSHSSQTQGGGSVTKKRKLESTESRSSFSQHARTSGRVAVEEVDEEGKFVRLRNKSNEDQSMGNWQIKRQNGDDPLLTYRFPPKFTLKAGQVVTIWAAGAGATHSPPTDLVWKAQNTWGCGNSLRTALINSTGEEVAMRKLVRSVTVVEDDEDEDGDDLLHHHHGSHCSSSGDPAEYNLRSRTVLCGTCGQPADKASASGSGAQVGGPISSGSSASSVTVTRSYRSVGGSGGGSFGDNLVTRSYLLGNSSPRTQSPQNCSIM
partner: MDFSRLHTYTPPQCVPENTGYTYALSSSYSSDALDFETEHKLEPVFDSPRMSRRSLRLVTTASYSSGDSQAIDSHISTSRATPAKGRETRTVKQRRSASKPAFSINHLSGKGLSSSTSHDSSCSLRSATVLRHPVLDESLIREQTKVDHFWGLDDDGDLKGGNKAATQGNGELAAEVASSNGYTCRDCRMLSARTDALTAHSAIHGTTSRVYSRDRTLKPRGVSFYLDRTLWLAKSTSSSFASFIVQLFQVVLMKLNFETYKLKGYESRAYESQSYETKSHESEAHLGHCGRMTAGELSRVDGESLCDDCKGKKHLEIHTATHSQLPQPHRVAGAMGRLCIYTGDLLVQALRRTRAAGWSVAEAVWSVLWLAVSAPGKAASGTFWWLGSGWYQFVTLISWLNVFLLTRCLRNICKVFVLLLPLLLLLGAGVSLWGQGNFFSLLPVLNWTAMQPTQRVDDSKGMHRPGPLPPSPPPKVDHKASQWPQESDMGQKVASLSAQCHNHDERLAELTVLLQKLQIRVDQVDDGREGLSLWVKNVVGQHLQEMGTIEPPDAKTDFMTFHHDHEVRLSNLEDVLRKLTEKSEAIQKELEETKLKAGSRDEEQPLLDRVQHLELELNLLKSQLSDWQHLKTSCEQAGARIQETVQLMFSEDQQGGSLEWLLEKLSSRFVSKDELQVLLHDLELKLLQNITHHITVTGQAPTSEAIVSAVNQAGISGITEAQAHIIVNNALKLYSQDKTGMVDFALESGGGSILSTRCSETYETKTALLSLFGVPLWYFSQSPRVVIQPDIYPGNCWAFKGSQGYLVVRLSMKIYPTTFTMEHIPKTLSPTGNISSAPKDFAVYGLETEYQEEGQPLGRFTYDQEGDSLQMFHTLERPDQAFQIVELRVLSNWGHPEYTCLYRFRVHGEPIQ

Variants of: B1
Details: with sun1_mouse Sun1, Q9D666

Which “effect of a mutation on the interaction” value does the source give for L530P here?
The value was “disrupting interaction”.

How did the “effect of a mutation on the interaction” value turn out when R527P was run?
Its value is “disrupting interaction”.
